From a protein production outcome set (Wang et al. 2014)

Assay: label from the status in PepcDB records

Sequence	protein production
MSLVNNFTVKKVRSSNLELLRLLSMFFVLVVHADFQALGMPDRTEMTILPLFSVFRIIIEAFAIVCVNSFVLLSGWFGINFHIKSLCNLLFQCAFFLIGIYTFTILIGIEPLSISGIKRCLMLTNNVWFVKCYLGMFIMAPILNAFVEKTDKRTFSTVLLSFFIFQTIYGWFSNGAPYFEKGYSAFSFMGLYLLARYVRIYQPSYTQWSKSKNLLMYISLSTFTALMLIITCYFDKVGYFCMFWTYTSPLVIAGALYLLLFFNRFAFQNKGINWIAASCFAVYLFHFFIWEYFMKPHIQQLAVTYNGISCLLVITGLLLTFFTAAILIDKIRLYIWNHFVSKYIS	failed
MSLWRLPMTLKTMTLAFAVTGLGVLAGSSPSVVQQRDGSQVVTPDEPKYNEDTGFYEYEKDGHKVQMNKDDVKTIEEVKLEHHHHHH	not failed
MSLYKQLLIAICLFVLIIFSGSFFVSLENSREQYNNQLHSHAQDAATALGLSLTPNIDDPAMVELMVSSIFDSGYFSSIRVRDLKTGNVTLERTASPDIPDVPLWFVQLVDLQPGAGEAIVMRGWEQAAKVEVVSHPMFAVTRLWRSSTATFLWLLGCGTLGVLIGALFLRRQLRPLDYIVDQSLAITRREFLSQPDLPNTPEFRRVAQAMNLMVSKLKTLFEEEAERSERLRQEAYQDPQTGLNNRRAFDMQFNDKLADEETAPGFLIMIRVQDLAGMNQRLGGQRTDALLASVGHILRKTQKQHTNTESLLARIRGGEFALFCPGLVDKEVYALIGELTRNIETLHLTGETDVSPVAQFGMVPFRPGDTAQSLFIQGDQALTRAESDTDTTAPYEIPLAGAEQVETDRHMWFNLLDPILEQERLQLFLQPVVACDDPSQVLHHKVLARIQDEQGNSIAAGRFLPWIQRFGWDTRLDQTMLREVLDYLRQHDGNLALSLSGTTVLNLHLLADLLAPLKHQPEVARRLILELDENQLPDSAQLETLIKLLNEHGCALGLQHFGGRFNMIGNLSQWGLAYLKVDGSYIRNIDQEGDKQMFIEALYRATNSIALPLIAERVETAGELKVLQEMGLQGAMGRLLGEPMPAVRA	failed
MSLYTFKELKRATKQDTVSLPKLKVALLGDTATQLLATAIKGEGILRNYNIELWEAEYNQVERQIMDPTSDYYQFEPDYTIIFHSTHKLLEKHSLVNSDLQNKLADDRLDFVRLLCEQGIGRVIYYNYPEIEDTIWGSYATKVQSSFTYQLTKLNYELMNISQAYPNFFICNLAGISAKYGRNFMFDSSVYVNTEIILSLDALPIISSRTIDIIAAIQGKFKKCLILDLDNTIWGGVVGDDGWENIQVGHGLGIGKAFTEFQEWVKKLKNRGIIIAVCSKNNEGKAKEPFERNPEMVLKLDDIAVFVANWENKADNIRTIQRTLNIGFDSMVFLDDNPFERNMVREHVPGVTVPELPEDPGDYLEYLYTLNLFETASFSEGHHHHHH	not failed
MSMESKSKRRSPPSSTLEEEVPGKTIHPEDPKITSKNFENPTKETSIQSPIKNSIKPSWNPEPKITRTSIWDIESAGGDSIQNDCQSECNVEDQGHEQEVTLETRIFSGTSDRIEPHRHYGVYLLRNRFDAIQLLTRNTSSSADDYGERRVISEYREMRCEFRVWSPFQSKLAAGIMGGVSDLHLQIGSKVLYLGAGFGRSVSHISDIVGDSGMVYAVEQIPWAGRQLTIMANRRSNIVPIVEDATMPYKYRYEVPACIDIIFADLPPSVLIRALMLNARHFLNPGGHFVAYLHSPTSQGVVFNKDSFAAERRLLKEKQLEPKEMVLLEPFKAGYAFVVGVYIRKDVSL	failed
MSMNDTYQPINCDDYDNLELACQHHLMLTLELKDGEKLQAKASDLVSRKNVEYLVVEAAGETRELRLDKITSFSHPEIGTVVVSES	failed
MSMNSEPTPAEAFFLEGNRLLAASECRAAEACFREALALAPDFAEAHANLGMLLDQEGMAAEAERQYRLALALNPRLGHTHSNLGVLLANQKRFEEAESAYLSAIELEPDSPAAWSNLGVLQACRKQEREAEESYRTALRLDPDYHRASFNLSYLLLRQGRFDEGWSLLESRNRRWFARLEEHLPCPRWRGEDLQGRSLLIGLEAGHGDMIQFCRYAPLLKDRGAARITLVCHVALKDLLKTLDGVDTVISFDEILPDDAWDFWTPAMSIPCYCRTRLDSIPARIPYLHADPGLAEQWAAMLEREWAGPEMRIGLAWKGNPHFENDGDRSLPHLKTLEPLGAVAGVRFFSLQKGAGEEEAAQPPAGLPVVNLMRHIAGFADTAALVANLDLVITVDTAVAHLAGALGTECWVLLPEYRTDWRWLTGRTDSPWYPGVMRLFRQPRVGDWETVVAEVGEALRLFAARPRSPRGTR	failed
MSMVVNSSDQAITMESLGISGHCDDVFCNELTATVIGEMTKRPTRLDIPIGVDGFVAPISSSADVTVTSREECREVEREGYEDTVNNEEISKPKSMKLLAHAGDDESIKRQENEDDDGRTTVDDDDGRGRINVSRLKALLMITTRE	failed
MSNCWKNVLVKPACTLLDALEIINDEALRVVLVVDESDSLLGVVTDGDIRRGLLRNLPLTADIAQVMNTTPYTAAIDTPRDELIAIMESNDILSIPLLDNGKVVGLETLHHALSTPVYENPVFIMAGGFGTRLRPLTDHCPKPMLKIGDKPILETVIRNFIKAGFINFYISTHYMPELIHQHFGDGSTLGVKITYVHEQSPLGTGGALGLLPKELPKDLPLIMMNGDVLTKVDFQRLLEFHTEHDADATMCVREYDYQIPYGVIKGEGNRITSMVEKPIQRFFVNAGIYVVSPVVIQSVPENHHIDMPTLLEQHMNKRNNVLMFPIHEYWLDIGRMDDFNRAQTDIYTLGL	failed
MSNDKTPNSPESTPSTPADEVLDGLLAELSPEASAEPNPADDSGNPFTTIFKSVTDKATELGSAATEGLSNLQESATELAAETKEKFGNFAEAHKDDLGQLLTSAQGKAASFGEAVSDRFGELGESATESFGNLQEGAAGFAAGAKEKFGDFAEASQEKLSEIAETTQDKAASFGEAVSDRVEGLRGSAAEKLGNLQEGASELAAGAKEKFGDFAEASQEKLSEIVETTQGKAASFGEAVSDRVEGLRGSAAEKLGNLQEGASELAAGAKEKFGDFAEASQEKLSEIVETTQGKAASFGEAVSDRFGELGESAAEKLSNLQEDASEFAASAQEKLSTFTNARQEELGNLTKSAQSDVQDTANTVSEQLEQAPEAVSTAADSLKGAQEKLEAAVVASQSVAEKLKPAEVQSQSSLQLASESPSPSFFGRLLRKIKGFFRKLFG	failed
MSNGGSFTVEKLSLYGNPNIGVYLTASDSYVLAPDDIGADDVRTISEVLGVAMERVVRLRVLGMRLVGVLTTGNSRGILLPEGVDREVELVRKALEGVEVGIVPTRSNALGNVIVCNDRACLASPGLEKEALKTVSDTLGVEVVEGSVAGVYTVGSAIVVTNRGGLAHPDASEEELKFLSDVFKVPFEAGTINFGVEFVRTGLVANSYGALVGEDTTGPEIARIQVALGGGVK	failed
MSNHEEKKQHVALSSVAASLLLTAMKLVVGLMTGSIGILSEAAHSAIDFGAAALTWFAVRISDKPADKKHHYGHTKIESVSALIETGLLILTSVWIIYEAVTRLLSGTTEIEVTWYAIAVIIISIIVDISRASALKKVAKETKSQALEADALHFTSDIVSSAVVLAGLGFVALGMHWADAVAGIFVAVLVGKAAWELGRKTIDVLIDTAPEGLSEQIEEIVVNAPGVIGINKMRIKPAGGPFVFIDLTISVSRTLPQEKVVAICAGVEQRLKAALPDSDITVNARPVVLDSETVTERIHTIGLNHGLHAHNILTSLSGDHKQITFDVEVDSRLTIRQAHDAVTELENELHREFNEEIDLCIHLDPINSEERNVQPADPENEARITALIRQAASTIPGILNVHALKIHVLSYNKLCITLHCGFDDNTVLADVHPLTSRLECLIYRDIPETSRIIVHAEPVNAGD	failed
MSNHQKRLSVPNSWPVERKTATFTVKAGAGPHGESGVPLLIVLRDVLGYADNRKEARYALNEDNVLINGKAISDEERPVGMFDILAFTEREEYYRVFPGEGGRLALTAIDPDAAQSKLGKIVTKTHVSGGDVQLGLHDGETLIVEDDQTYDAGDSIVVGNEDGEVVAHFEYEEGALVTAVDGAHAGEVGEVEEIQVTPGSAQNNVIVSQDEGEGFETVEEYVVVIDENFTGDDELEHHHHHH	not failed
MSNKIVTLEINLEPSDNRRLASLCGPFDDNIKHLERRLGVEINHRSDHFTIVGKPHTSAAALDILKTLYVDTAPVRGEIPDIEPEQIHLAIKESGVLEQNTESSIAHGKEVFVKTKKGVIKPRTPNQAQYLVNMVTHDISFGIGPAGTGKTYLAVAAAVDALERQEIRRILLTRPAVEAGEKLGFLPGDLSQKVDPYLRPLYDALFEMLGFERVEKLIERNVIEVAPLAYMRGRTLNDAFIILDESQNTTVEQMKMFLTRIGFNSRAVITGDVTQIDLPRGAKSGLRHAIEVLSEVDDISFNFFQADDVVRHPVVARIVNAYEKWEAQDQKERKEFEKRRREERDAKLLEAAKAELSAQVAATKE	not failed
MSNVIASLEKVLLPFAVKIGKQPHVNAIKNGFIRLMPLTLAGAMFVLINNVFLSFGEGAFFYSMGIRLDASTIETLNGLKGIGGNVYNGTLGIMSLMAPFFIGMALAEERKVDALAAGLLSVAAFMTVTPYSVGEAYAVGANWLGGANIISGIIIGLVVAEMFTFIVRRNWVIKLPDSVPASVSRSFSALIPGFIILSIMGIIAWALSNYGSNFHQIIMDTISTPLASLGSVVGWAYVIFVPLLWFFGIHGSLALTALDSGIMTPWALENISIYQQYGSVDAALEAGKTFHIWAKPMLDSYIFLGGSGATLGLIIAIFLASRRADYRQVAKLALPSGIFQINEPILFGLPIIMNPVMFIPFILVQPILAAITLVAYYLGIIPPITNIAPWTMPTGLGAFFNTNGSVAALLVALFNLAVATLIYLPFVVVANKAQNAIEQEESEEDIANALKF	not failed
MSNVSALPIQPETTPSGGGSVRDRVSPQEWEVRVKLAAAYRLAALKRWTDHIYTHFSARVPGPDEHFLINAFGLLFDEITASNLVKVDIDGTIVDDPTGLGINYAGYVIHSAIHAARHDLQAVLHTHTRDGIAVSAQKGGLLPISQHSIAFSGRVAYHGYEGIALDLSERERLVADLGDKSVMILRNHGLLTGGVSVEHAFQQLHALEYACNIQIAAQSAGNDELVFPPQEVIARVEEQAKVIKDGHGPGVARHWNALIRELERSGTDYRE	failed
MSNVVWTNFGRSSPDRMRARGGKLMAEPDFEAQLTRMFAQAPSFPDAALFNAEVMAKLDRGWAMRRMFIAVAGTGAGLIGAFQIFGSRFSNELAQLSREGSHGLETEINGGWAKLTALLSTPSSAEAVWLAAGLAVVALAFAVTRLVEDF	failed
MSNWNLDNFDNLHSSLAESAYNSRPNSFPELFETDSVTEVKFSQPSEDNKGQITQGGTNLPNDGIVYLQPDKSLKSIDENVKVLIPDVNGGYHTEHYVTHSYQKGVLTDDKAGFNAYYLSDTEKIDSTTKHTYLAIRGSDGIGLDTLNDWVSNNAMFAVSNKYIPQAKLANKAMKEKIAELKGKAPGAIIDVTGHSLGTIVSSQAVVNLSYAELENVGQVVLFDGPDVSRSLEKMEGISAKKIQEAGKHVTYYVNPFDIVSMLNREKP	failed
MSPAAECRRQLSLDSSEAIGLQPLMQRASNTAGVFVMIDTQLEQQLQGFSALQSLFEADFDVRRLFTAEDALEAGEYGRLTVEALRNDPAAGQLFEERWVLPELNLSSLLQLPEGSFGRVYAEMLVGNGFDPDYVIQIAPVEGDDDLSYFKRLWRTTHDFHHIATGLGTDPRGEVALQAFLMGQLPIPFSVVVVSMGLLRTSVAQPDRIPALVDAISDAFRRGRHSPQLLLAQRWDHFWALPVAEVRQQLQIADLEHHHHHH	failed
MSPGGLCDAPHMAVAPRVKPLDLFTPEEWTRISARSSWRGIWMVAHAWGVILAAGALFVAFPNPLTYVLAVMLIGARQLGLAILMHEAAHGGLHPKLKVNDWLGEWLCAAPVGASLASYRPYHLSHHKYAQQAEDPDLVLSAPFPTTRRSLRRKMIRDLTGQTFFKQRFGPLLGKMKGAKTTGQPKGAIFAGEIARQRPFLLWNLGILVVLSALGLWWAWPALWIVPMATWFPLVTRLRNIAEHALVAKDEPDPFRHARTTNANWIERALIAPYYVNFHAEHHMFMHTPCWNLPLAHRVLEKKGLTQGMLTAPGYLSVLKAASSKPVAA	failed
